Test results reported in PMC12748351, “The TDG protein environment connects active DNA demethylation with chromatin and RNA biology”.

Biological target: TDG (recombinant murine TDG) (Mus musculus, UniProt P56581 1-421)
Assay: competition; competes TDG-Sra1 and TDG-Neat1 complexes; higher affinity than lncRNA; BER buffer: 50 mM HEPES pH 8.0, 70 mM KCl, 0.5 mg/mL BSA, 7 mM MgCl2, 1 mM DTT, RNase inhibitor; RT, 15 min (buffer stated for lncRNA EMSA; 60 bp EMSA: 2 µM TDG, 2 µM substrate, RT 15 min)
Conditions: protein: recombinant; blunt, one G·U mismatch

Sequence of TDG (recombinant murine TDG) (P56581 whole entry): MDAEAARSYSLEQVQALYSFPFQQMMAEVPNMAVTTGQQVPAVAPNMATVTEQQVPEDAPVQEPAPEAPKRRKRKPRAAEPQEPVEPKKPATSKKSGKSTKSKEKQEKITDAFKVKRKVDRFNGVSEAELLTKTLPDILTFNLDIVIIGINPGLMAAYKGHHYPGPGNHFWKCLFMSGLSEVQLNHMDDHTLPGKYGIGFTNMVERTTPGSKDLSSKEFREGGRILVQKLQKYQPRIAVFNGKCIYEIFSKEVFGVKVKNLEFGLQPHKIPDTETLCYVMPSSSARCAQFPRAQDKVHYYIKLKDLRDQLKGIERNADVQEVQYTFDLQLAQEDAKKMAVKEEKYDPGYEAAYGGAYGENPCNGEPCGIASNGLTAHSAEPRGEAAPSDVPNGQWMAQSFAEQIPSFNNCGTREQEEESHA

B1: Subs60 G·U (unlabeled competitor) (dsDNA)
DNA 1: TAGACATTGCCCTCGAGGTACCATGGATCCGATGTCGACCTCAAACCTAGACGAATTCCG
DNA 2: CGGAATTCGTCTAGGTTTGAGGTUGACATCGGATCCATGGTACCTCGAGGGCAATGTCTA
modifications: dU at position 24 of strand 2
binding result: binds
